Reference: patent publication US20180021429A1 (PHARMA FOODS INTERNATIONAL, published 2018)
Changes are numbered by the printed parent chain.

T1: human FSTL1 (construct not stated) (human, UniProt Q12841 21-308)
T1 construct: also called human FSTL1 antigen; FSTL1 (R&D Systems, Inc. Cat#1694-FN-050)
T1 sequence: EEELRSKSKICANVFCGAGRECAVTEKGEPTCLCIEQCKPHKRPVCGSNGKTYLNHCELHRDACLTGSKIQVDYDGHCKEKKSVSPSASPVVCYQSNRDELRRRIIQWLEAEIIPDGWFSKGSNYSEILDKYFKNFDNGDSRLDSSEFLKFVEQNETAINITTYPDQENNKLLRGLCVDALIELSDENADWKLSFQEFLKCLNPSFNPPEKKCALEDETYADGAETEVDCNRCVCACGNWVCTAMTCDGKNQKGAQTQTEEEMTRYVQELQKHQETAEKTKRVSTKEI

T2: His-tagged mouse FSTL1 (amino acid sequence of mouse FSTL1 used in Examples, SEQ ID NO: 72) (mouse, UniProt Q62356 19-306)
T2 sequence: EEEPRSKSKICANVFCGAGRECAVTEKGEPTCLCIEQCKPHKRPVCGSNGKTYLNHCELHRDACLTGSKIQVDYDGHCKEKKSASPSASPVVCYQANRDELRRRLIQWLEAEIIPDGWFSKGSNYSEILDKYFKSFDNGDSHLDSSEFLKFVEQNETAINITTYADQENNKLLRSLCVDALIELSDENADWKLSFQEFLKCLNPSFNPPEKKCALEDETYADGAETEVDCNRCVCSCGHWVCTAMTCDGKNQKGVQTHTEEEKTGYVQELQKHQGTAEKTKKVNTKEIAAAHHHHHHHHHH

T3: His-tagged human FSTL1 (amino acid sequence of human FSTL1 used in Examples, SEQ ID NO: 70) (human, UniProt Q12841 21-308)
T3 construct: Parent of the deletion mutants
T3 sequence: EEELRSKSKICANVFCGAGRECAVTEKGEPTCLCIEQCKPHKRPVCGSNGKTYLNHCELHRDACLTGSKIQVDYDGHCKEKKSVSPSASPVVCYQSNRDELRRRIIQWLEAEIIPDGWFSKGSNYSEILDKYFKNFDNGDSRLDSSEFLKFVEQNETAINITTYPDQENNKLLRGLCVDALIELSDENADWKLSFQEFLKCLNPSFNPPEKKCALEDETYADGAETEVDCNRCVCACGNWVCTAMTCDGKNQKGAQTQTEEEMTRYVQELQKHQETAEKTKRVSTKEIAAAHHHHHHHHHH

B1: anti-FSTL1 antibody clone #8-4 (chicken-mouse chimeric antibody) (antibody, mouse IgG1, kappa, V domains shown)
VH: AVTLDESGGGLQTPGGGLSLVCKGSGFTLSSFNMFWVRQAPGKGLEWVAGVGKDGGTAYGAAVDGRATISRDSGQSTVRLQLNNLRAEDTGTYFCAKAAGGCSYSWCGAYVGDLDAWGHGTEVIVSS
VL: ASSQPSSVSANPGETVKITCSGGSGYYYGWYQQKSPGSAPVTVIYNNDNKPSDIPSRFSGSKSGSTGTLTITGVQVEDEAVYFCGGYDNSGTGIFGAGTTLTVLG
B2: anti-FSTL1 antibody clone #10 (chicken-mouse chimeric antibody) (antibody, mouse IgG1, kappa, V domains shown)
VH: AVTLDESGGGLQTPGGALSLVCKASGFFFFRIYDMGWVRQAPGKGLEWVAGIDDYGRYTGYGSAVKGRATISRDNGQSTVRLQLNNLRAEDTGTYYCARGAGTGCNSAGCGAYAGSIDAWGHGTEVIVSS
VL: ASTQPSSVSANPGETVKLTCSGGGSRYGWYQQKSPGSAPVTVIYYNDKRPSDIPSRFSGSKSGSTATLTITGVQAEDEAVYFCGGYDGSRDAGIFGAGTTLTVLG
B3: anti-FSTL1 antibody clone #7-34 (chicken-mouse chimeric antibody) (antibody, mouse IgG1, kappa, V domains shown)
VH: AVTLDESGGGLQTPGGGLSLVCKASGFTFSSVTMQWVRQAPGKGLEWVASICSGSSTYYGPAVKGRATISRDNGQNTVRLQLNNLRAEDTATYYCAKIVGRGRWSCTSAAYNIDAWGHGTEVIVSS
VL: ASTQPSSVSANPGETVKITCSGGGNNYGWYQQKSPGSAPVTVIYYNNNRPSNIPSRFSGSTSGSTSTLTITGVQAEDEAVYYCGSYEGSTDSGIFGAGTTLTVLG
B4: humanized #6-55 antibody H(2)-L(1) (IgG1 type) (antibody)
heavy: not shown
light: SYELTQPPSVSVSPGQTARITCSGGGNNYGWYQQKPGQAPVTVIYYNDNRPSGIPERFSGSNSGSTTTLTISGVQAEDEADYYCGSWDSNTDSGIFGGGTKLTVLGTVAAPSVFIFPPSDEQLKSGTASVVCLLNNFYPREAKVQWKVDNALQSGNSQESVTEQDSKDSTYSLSSTLTLSKADYEKHKVYACEVTHQGLSSPVTKSFNRGEC
notes: Human IgG1 constant region; expressed in HEK293; lead antibody; also called h#6-55 H(2)-L(1); humanized #6-55 H chain (2)+L chain (1)
B5: humanized #6-55 antibody H(1)-L(1) (IgG1 type) (antibody, V domains shown)
VH: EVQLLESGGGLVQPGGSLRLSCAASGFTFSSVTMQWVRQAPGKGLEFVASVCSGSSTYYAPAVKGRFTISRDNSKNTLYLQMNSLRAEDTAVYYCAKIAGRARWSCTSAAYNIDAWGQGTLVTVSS
VL: SYELTQPPSVSVSPGQTARITCSGGGNNYGWYQQKPGQAPVTVIYYNDNRPSGIPERFSGSNSGSTTTLTISGVQAEDEADYYCGSWDSNTDSGIFGGGTKLTVLG
notes: Human IgG1 constant region; expressed in HEK293 with a chicken antibody leader; also called h#6-55 H(1)-L(1)
B6: humanized #6-55 antibody H(1)-L(2) (IgG1 type) (antibody, V domains shown)
VH: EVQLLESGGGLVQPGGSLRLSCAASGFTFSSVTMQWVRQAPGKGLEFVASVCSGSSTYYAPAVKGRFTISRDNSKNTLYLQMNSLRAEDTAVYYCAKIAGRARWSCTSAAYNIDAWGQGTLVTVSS
VL: B5 VL with N62T
notes: Human IgG1 constant region; expressed in HEK293; also called h#6-55 H(1)-L(2)
B7: humanized #6-55 antibody H(2)-L(3) (IgG1 type) (antibody, V domains shown)
VH: EVQLLESGGGLVQPGGSLRLSCAASGFTFSSVTMQWVRQAPGKGLEFVSSVCSGSSTYYAPAVKGRFTISRDNSKNTVYLQMNSLRAEDTAVYYCAKIAGRARWSCTSAAYNIDAWGQGTLVTVSS
VL: B5 VL with S65N, T67A
notes: Human IgG1 constant region; expressed in HEK293; also called h#6-55 H(2)-L(3)
B8: humanized #6-55 antibody H(2)-L(2) (IgG1 type) (antibody, V domains shown)
VH: B7 VH
VL: B5 VL with N62T
notes: Human IgG1 constant region; expressed in HEK293; also called h#6-55 H(2)-L(2)
B9: humanized #6-55 antibody H(3)-L(3) (IgG1 type) (antibody, V domains shown)
VH: B7 VH with S49A, F67V
VL: B5 VL with S65N, T67A
notes: Human IgG1 constant region; expressed in HEK293; also called h#6-55 H(3)-L(3)
B10: humanized #6-55 antibody H(1)-L(3) (IgG1 type) (antibody, V domains shown)
VH: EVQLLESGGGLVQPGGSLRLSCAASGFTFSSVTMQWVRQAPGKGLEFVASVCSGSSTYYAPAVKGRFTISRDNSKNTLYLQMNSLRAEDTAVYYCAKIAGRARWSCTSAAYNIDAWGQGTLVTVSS
VL: B5 VL with S65N, T67A
notes: Human IgG1 constant region; expressed in HEK293; also called h#6-55 H(1)-L(3)
B11: anti-FSTL1 antibody clone #22 (chicken-mouse chimeric antibody) (antibody, mouse IgG1, kappa, V domains shown)
VH: AVTLDESGGGLQTPGGALSLVCKASGFTFSSNGMAWVRQAPGKGLELVARINSSGSYTNYGAAVKGRATISRDNGQSTVRLQLNNLRAEDTGTYYCAKGASGYGAYPGNIDAWGHGTEVIVSS
VL: ASTQPSSVSANPGETVKITCSGGSGSYGWFQQKSPGSAPVTVIYWDDRRPSDIPSRFSGSKSGSIHTLTITGVQADDEAVYLCGNAVRSGTGYVGVFGAGTTLTVLG
B12: optimized humanized antibody (humanized #6-55 H(2)-L(1), human IgG4 H chain constant region, λ L chain constant region) (antibody)
heavy: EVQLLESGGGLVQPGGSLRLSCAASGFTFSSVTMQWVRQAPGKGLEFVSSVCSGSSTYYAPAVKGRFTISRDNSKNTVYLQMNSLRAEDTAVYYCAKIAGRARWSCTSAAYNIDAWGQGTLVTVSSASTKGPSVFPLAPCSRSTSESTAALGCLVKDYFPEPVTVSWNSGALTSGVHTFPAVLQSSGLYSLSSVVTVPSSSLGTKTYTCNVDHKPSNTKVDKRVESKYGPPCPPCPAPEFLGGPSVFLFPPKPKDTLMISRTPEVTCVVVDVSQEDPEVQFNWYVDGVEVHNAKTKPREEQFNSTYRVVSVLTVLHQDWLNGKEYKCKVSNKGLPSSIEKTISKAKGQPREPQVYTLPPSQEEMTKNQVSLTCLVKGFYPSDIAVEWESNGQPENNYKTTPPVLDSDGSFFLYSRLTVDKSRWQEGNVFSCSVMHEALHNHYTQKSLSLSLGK
light: SYELTQPPSVSVSPGQTARITCSGGGNNYGWYQQKPGQAPVTVIYYNDNRPSGIPERFSGSNSGSTTTLTISGVQAEDEADYYCGSWDSNTDSGIFGGGTKLTVLGQPKAAPSVTLFPPSSEELQANKATLVCLISDFYPGAVTVAWKADSSPVKAGVETTTPSKQSNNKYAASSYLSLTPEQWKSHRSYSCQVTHEGSTVEKTVAPTECS
notes: Expressed in ExpiCHO

The binders below were run against T1, human FSTL1 (construct not stated) (assay: SPR (Biacore T-200), captured antibody, human FSTL1 10 µg/ml).
Experimental: (§1) The mouse chimeric antibodies were immobilized onto Sensor Chip CM5 (GE Healthcare Japan Corp., BR-1005-30) using Mouse Antibody Capture Kit (GE Healthcare Japan Corp., BR-1008-38), and their affinity for human FSTL1 was calculated using Biacore T-200 (GE Healthcare Japan Corp.).
(§2) First, the exhaustive activity comparison of the obtained antibodies was conducted with the human FSTL1 concentration fixed to 10 μg/ml (Table 33-1, FIG. 28).
For B1, the “Binding amount (RU)” value was 11.6 RU and the “Dissociation amount (RU)” value was 6.2 RU.
With B2 the “Binding amount (RU)” value was 11.7 RU and the “Dissociation amount (RU)” value was 6 RU.
B3 was tested, and the “Binding amount (RU)” value was 14.2 RU and the “Dissociation amount (RU)” value was 2.5 RU.

Target: T1, human FSTL1 (construct not stated)
Test: as above
Remark: another data set of the same source
Experimental: as §1
B1 was tested, and the “Binding amount (RU)” value was 11.6 RU and the “Dissociation amount (RU)” value was 6.2 RU.
With B2 the “Binding amount (RU)” value was 11.7 RU and the “Dissociation amount (RU)” value was 6 RU.
In the case of B3, the “Binding amount (RU)” value is reported as 14.2 RU and the “Dissociation amount (RU)” value is reported as 2.5 RU.

The binders below were run against T1, human FSTL1 (construct not stated) (assay: SPR (Biacore T-200), antibody on Human Antibody Capture Kit, human FSTL1 0 to 20 µg/ml).
Experimental: (§3) Nine IgG1-type humanized antibodies of #6-55 were immobilized onto Sensor Chip CM5 (GE Healthcare Japan Corp., BR-1005-30) using Human Antibody Capture Kit (GE Healthcare Japan Corp., BR-1008-38), and their affinity for human FSTL1 was calculated using Biacore T-200 (GE Healthcare Japan Corp.). […] Among the 9 IgG1-type humanized antibodies of #6-55, a clone composed of a combination “H(2)-L(1)” having a […] KD value was selected as a lead antibody.
For B4, the Kd was 60.5 nM.
Work on B5 yielded a Kd of 35.2 nM.
In the case of B6, the Kd is reported as 25 nM.
B7 was tested, and the Kd was 45 nM.
With B8 the Kd was 11.3 nM.
B9 showed a Kd of 24.9 nM.
B10 gave a Kd of 26.8 nM.

The binders below were run against T2, His-tagged mouse FSTL1 (amino acid …) (assay: ELISA, mouse FSTL1 coated (FIG. 1B)).
B3: binds.

Target: T1, human FSTL1 (construct not stated)
Test: SPR (Biacore T-200), antibody on Human Antibody Capture Kit, human FSTL1 0 to 20 µg/ml
Remark: another data set of the same source
Experimental: as §3
In the case of B4, the Kd is reported as 60.5 nM.
In the case of B5, the Kd is reported as 35.2 nM.
B6 showed a Kd of 25 nM.
For B7, the Kd was 45 nM.
Work on B8 yielded a Kd of 11.3 nM.
In the case of B9, the Kd is reported as 24.9 nM.
B10 gave a Kd of 26.8 nM.

Target: T1, human FSTL1 (construct not stated)
Test: as above
Remark: another data set of the same source
Experimental: as §3
B4 was tested, and the Kd was 60.5 nM.
B5 gave a Kd of 35.2 nM.
Work on B6 yielded a Kd of 25 nM.
In the case of B7, the Kd is reported as 45 nM.
For B8, the Kd was 11.3 nM.
With B9 the Kd was 24.9 nM.
B10 gave a Kd of 26.8 nM.

The binders below were run against T2, His-tagged mouse FSTL1 (amino acid …) (assay: ELISA, mouse FSTL1 coated (FIG. 3B)).
B11: binds.
B1: no binding (tested: antibody diluted from 100 ng/ml).
B2: binds.

The binders below were run against T3, His-tagged human FSTL1 (amino acid …) (assay: ELISA, human FSTL1 coated (FIG. 3A)).
B11: binds.

These binders were tested against T1, human FSTL1 (construct not stated) (assay: BLI (BLItz), biotinylated antigen 5 µg/ml on streptavidin sensor, antibody 0 to 40 ug/ml).
Experimental: The binding activity of the obtained purified antibody against FSTL1 was measured by use of the BLI method (BLItz, Pall Corp., 45-5000). The antigen was biotinylated using EZ-Link NHS-PEG4-Biotin (Thermo Fisher Scientific Inc., 21329). Streptavidin Tray (Pall Corp., 18-5019) was used as a sensor chip for the BLI method. The sensor chip was hydrated with PBS (Wako Pure Chemical Industries, Ltd., 166-23555) for 10 minutes or longer. 5 μg/ml of the biotinylated antigen was immobilized onto the hydrated sensor chip for 300 seconds. The antibody was adjusted to 40, 20, 10, 5, 2.5, or 0 ug/ml and reacted therewith for 120 seconds, and dissociation was measured for 300 seconds. When the antibody concentration of 0 ug/ml was used as a reference, the KD value was calculated.
In the case of B12, the Kd is reported as 10.9 nM.

Target: T1, human FSTL1 (construct not stated)
Test: SPR (Biacore T-200), captured antibody, human FSTL1 10 µg/ml
Remark: another data set of the same source
Experimental: as §1, §2
For B1, the “Binding amount (RU)” value was 11.6 RU and the “Dissociation amount (RU)” value was 6.2 RU.
In the case of B2, the “Binding amount (RU)” value is reported as 11.7 RU and the “Dissociation amount (RU)” value is reported as 6 RU.
B3 was tested, and the “Binding amount (RU)” value was 14.2 RU and the “Dissociation amount (RU)” value was 2.5 RU.

Target: T1, human FSTL1 (construct not stated)
Test: as above
Remark: another data set of the same source
Experimental: as §1, §2
With B1 the “Binding amount (RU)” value was 11.6 RU and the “Dissociation amount (RU)” value was 6.2 RU.
B2 was tested, and the “Binding amount (RU)” value was 11.7 RU and the “Dissociation amount (RU)” value was 6 RU.
In the case of B3, the “Binding amount (RU)” value is reported as 14.2 RU and the “Dissociation amount (RU)” value is reported as 2.5 RU.

Target: T1, human FSTL1 (construct not stated)
Test: SPR (Biacore T-200), antibody on Human Antibody Capture Kit, human FSTL1 0 to 20 µg/ml
Remark: another data set of the same source
Experimental: as §3
For B4, the Kd was 60.5 nM.
With B5 the Kd was 35.2 nM.
B6 was tested, and the Kd was 25 nM.
For B7, the Kd was 45 nM.
Work on B8 yielded a Kd of 11.3 nM.
In the case of B9, the Kd is reported as 24.9 nM.
Binder B10 has a Kd of 26.8 nM.
